Test results as given in PMC12892846, “Biodistribution of the Bombesin Receptor-Targeted Radiopharmaceutical Precursor BBN/C1-C2 in a Prostate Cancer Model” (Modern Technologies in Medicine, 2025).
No end group written: not given here.

How the values were obtained:
[1] = cited from earlier work
Text: Currently, there have been introduced into clinical practice several radiolabeled ligands targeting GRPR and based on a gastrin-releasing peptide (GRP) analog isolated from amphibian — bombesin (BBN) [[5–8]]. […] In addition to the high concentration of radiopharmaceuticals in non-target organs, there is one more significant problem complicating cancer therapy — pharmaceutical stability.

patients = patients with AMBA therapy; cited from earlier work
Text: The key feature of these peptides is their ability to internalize inside the cells, acting as receptor agonists. At early stages of developing pharmaceuticals, this ability was an important condition for high and long-term absorption of a tumor by a pharmaceutical. However, currently, it appears to be a substantial deficiency, since radiolabeled agonists provide high absorption of radionuclides. One more major drawback of the ligands based on GRPR agonists is their absorption by normal non-tumor cells, particularly, the pancreatic cells. So, the potent GRPR agonist — AMBA (DOTA-Gl ...

[2] = Stability analysis of Cy7.5-labeled peptides in phosphate-buffered saline (HPLC); type: physicochemical
Protocol: After synthesis the chemical purity of the peptides was analyzed by reversed-phase chromatography; we used high-efficiency liquid chromatography: LC-20AD XR (Shimadzu, Japan) equipped with a spectrophotometric detector and a column Luna C18(2) ([…]). The elution was gradient, its mobile phase consisted of deionized water and acetonitrile. The acetonitrile content in a mobile phase was increased from 5% at the beginning of the study to 100% at the end of the study within 40 min. The flow rate was 1 ml/min. Detection was performed at a wavelength of 215 nm, using mass spectrometry with the MALDI-TOF MS FLEX mass spectrometer (Bruker Daltonics, Germany).
We studied the stability of both — the whole structures (Cy7.5-BBN/C1-C2, Cy7.5-GRP, Cy7.5-U5-Sth1a) and also the peptide complexes with Cy7.5. So, all peptides were incubated in the phosphate-buffered saline (pH 7.4) for 144 h, at 37°С. Every 24 h we drew the samples and analyzed them using high-efficiency liquid chromatography LC-20AD XR (Shimadzu, Japan), as described above. The stability of the complex with the dye was fixed similarly to the peptide stability fixation, as following from the accumulation of the free dye in samples.

[3] = system: Nu/Nu mice with PC-3 prostate cancer tumor; assay: In vivo surface fluorescent imaging of biodistribution; design: species or system mouse; details: Cy7.5-labeled peptides, i.v. 19 nmol/kg, Nu/Nu mice with PC-3 tumor, 2 days, n=3
Protocol: The study was carried out on Nu/Nu line male mice aged 9–10 weeks, weighing 26–28 g.
(§1) Since Cy7.5-GRP peptide stability was limited, firstly, 48 h at 37°С in phosphate-buffered saline, there were two time points used in the study — 2 and 5 days. Two weeks prior to the investigation, the animals were subcutaneously inoculated into the right side with PC-3 cells (1 mil cells in RPMI-1640, 100 μl (PanEco, Russia), and matrigel, 100 μl (ABW, China)) to form a tumor. When the tumor reached its optimal size (150–200 mm3), the animals (n=10) were divided into the following groups: group 1 animals were administered a pure dye (n=1); group 2 — were given Cy7.5-GRP peptide (n=3); group 3 — were administered Cy7.5-U5-Sth1a toxin (n=3); group 4 — had Cy7.5-BBN/C1-C2 administered (n=3). The animals were anesthetized with 3% isoflurane inhalation (Chemical Iberica, Spain) at the rate of 1 L/min within 10 min, then the dose was reduced up to 2%. The peptides were injected into the caudal vein at the rate of 19 nmol/kg. […] The regions of interest were manually determined along the organ borderline; then using the software, we calculated the total fluorescence for each region. Finally, the average fluorescence of the peptides in the organ was calculated, it being normalized to the organ weight.

[4] = system: PC-3 prostate cancer solid tumor expressing GRPR; assay: Tumor fluorescent imaging on days 2 and 5; type: in vivo, mouse; details: Cy7.5-labeled peptides, i.v. 19 nmol/kg, PC-3 tumor in Nu/Nu mice
Protocol: as §1

[5] = system: Nu/Nu mice with PC-3 prostate cancer tumor; assay: Semiquantitative ex vivo organ biodistribution on day 5 (fluorescence normalized to organ weight); type: in vivo, mouse; details: Cy7.5-labeled peptides, i.v. 19 nmol/kg, day 5, harvested organs, n=3
Protocol: as §1

## N4-AMA-DIG-[DPhe6,Sar11,LeuNHEt13]BBN
[1]
  resistance to proteolysis: high resistance to proteolysis

## bombesin
[1]
  proteolytic stability: low proteolytic stability

## DOTA-Gly-4-aminobenzoyl-BBN(7–14) [AMBA]
patients
  absorption by normal organs in patients: significant absorption of the pharmaceutical by the pancreas and the gastrointestinal tract

## Cy7.5-GRP: GRP peptide labeled with Cyanine7.5 fluorescent dye (VPLPAGGGTVLTKMYPRGNHWAVGHLM; ends and bridges not checked; also: Cy7.5 NHS ester bound to peptide amino group (N-terminus or Lys not given here); UniProt P07492 24-50, looked up)
[2]; 37°C in phosphate-buffered saline
  time to which peptide stability was limited: 48 h
[2]; phosphate-buffered saline pH 7.4, 37°C, 48 h, reversed-phase HPLC C18, detection 215 nm
  chemical purity / stability after 48 h: 64.5%
[2]; phosphate-buffered saline pH 7.4, 37°C, 144 h, samples every 24 h, reversed-phase HPLC C18, detection 215 nm
  chemical purity / stability after 144 h: 46.8%
[2]; phosphate-buffered saline pH 7.4, 37°C, start of incubation, reversed-phase HPLC C18, detection 215 nm
  chemical purity / stability at the start of incubation: 95.7%

## GRP: a short peptide with affinity to GRPR receptors (VPLPAGGGTVLTKMYPRGNHWAVGHLM; ends and bridges not checked; UniProt P07492 24-50, looked up)
[3]
  main region of binding / accumulation on day 2: the spleen
  organ of excretion on day 2: the kidney
[4]
  localization of labeled peptide in the tumor on day 2: detected in the tumor to a greater extent than BBN/C1-C2
[5]
  organs of accumulation / localization, ex vivo: localized in the stomach and the pancreas
